pKd: −log10 of the molar value.
Molecular target: Robo1-CC3 (UniProt Q9Y6N7)
Assay: SPR

Chain of Robo1-CC3 (Q9Y6N7 26-1651): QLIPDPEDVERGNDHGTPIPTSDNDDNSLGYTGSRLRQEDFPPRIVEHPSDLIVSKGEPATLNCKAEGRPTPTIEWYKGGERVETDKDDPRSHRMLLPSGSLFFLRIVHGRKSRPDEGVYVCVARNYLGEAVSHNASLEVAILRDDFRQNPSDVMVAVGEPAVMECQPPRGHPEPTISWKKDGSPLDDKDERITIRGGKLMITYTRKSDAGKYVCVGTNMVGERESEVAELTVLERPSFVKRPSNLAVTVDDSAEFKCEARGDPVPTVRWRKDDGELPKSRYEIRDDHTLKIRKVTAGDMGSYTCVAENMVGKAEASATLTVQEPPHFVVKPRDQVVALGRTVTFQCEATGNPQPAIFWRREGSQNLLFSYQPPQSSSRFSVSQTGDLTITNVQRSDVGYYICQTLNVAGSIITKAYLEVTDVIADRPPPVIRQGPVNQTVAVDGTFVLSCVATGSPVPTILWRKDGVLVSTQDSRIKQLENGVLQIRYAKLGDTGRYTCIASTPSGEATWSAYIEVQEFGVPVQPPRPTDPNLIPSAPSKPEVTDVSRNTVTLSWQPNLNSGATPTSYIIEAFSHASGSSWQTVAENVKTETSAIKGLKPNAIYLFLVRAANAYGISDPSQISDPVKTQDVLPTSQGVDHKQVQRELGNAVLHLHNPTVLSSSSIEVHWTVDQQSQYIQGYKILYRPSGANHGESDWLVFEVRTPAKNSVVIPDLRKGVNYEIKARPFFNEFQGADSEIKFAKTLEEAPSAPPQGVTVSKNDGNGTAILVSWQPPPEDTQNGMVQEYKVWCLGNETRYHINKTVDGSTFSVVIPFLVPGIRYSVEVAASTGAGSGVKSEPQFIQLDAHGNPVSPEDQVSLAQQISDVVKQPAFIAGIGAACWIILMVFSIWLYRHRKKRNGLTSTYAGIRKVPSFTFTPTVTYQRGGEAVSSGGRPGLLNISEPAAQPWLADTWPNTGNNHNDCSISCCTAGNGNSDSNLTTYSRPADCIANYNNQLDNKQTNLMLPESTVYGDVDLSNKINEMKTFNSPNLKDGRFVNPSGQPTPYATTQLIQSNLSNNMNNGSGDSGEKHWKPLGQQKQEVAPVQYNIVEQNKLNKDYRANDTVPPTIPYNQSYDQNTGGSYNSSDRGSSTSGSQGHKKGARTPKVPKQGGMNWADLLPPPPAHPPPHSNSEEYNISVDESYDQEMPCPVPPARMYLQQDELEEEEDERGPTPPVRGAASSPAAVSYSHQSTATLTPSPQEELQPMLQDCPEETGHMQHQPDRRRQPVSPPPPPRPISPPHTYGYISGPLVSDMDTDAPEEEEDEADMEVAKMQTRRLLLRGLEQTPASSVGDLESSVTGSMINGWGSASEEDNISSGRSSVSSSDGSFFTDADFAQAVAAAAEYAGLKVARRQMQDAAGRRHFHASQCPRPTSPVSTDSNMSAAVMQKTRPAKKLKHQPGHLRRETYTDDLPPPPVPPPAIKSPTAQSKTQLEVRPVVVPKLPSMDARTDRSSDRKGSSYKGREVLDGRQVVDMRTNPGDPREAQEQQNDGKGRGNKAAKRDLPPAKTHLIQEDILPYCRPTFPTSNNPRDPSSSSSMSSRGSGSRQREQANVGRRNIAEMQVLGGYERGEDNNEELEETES

## SRGAP2A:F-BARC hetero-dimer (from UniProt O75044 1-799; P0DJJ0 1-355) (complex)
  pKd: 5.25
